For test [1], the target named is PASD1(1) (…) presented by the HHD chimeric monochain MHC class I molecule (human; mouse).
In test [2] the target is PASD1(2) (…) presented by the HHD chimeric monochain MHC class I molecule (human; mouse).
The target of test [3] is PASD1(1) (…) presented by the HHD chimeric monochain MHC class I molecule (human; mouse). This is another data set of the same source.
Test [4] shares this target. This is another data set of the same source.

Our source for the IFNγ-secreting spot-forming cells ex vivo (ELISPOT) (SFCs/10^6 splenocytes), IFNγ-secreting spot-forming cells ex vivo (ELISPOT) (SFCs/10^6 cells) and specific lysis of KMS-12-HHD cells (51Cr release assay) values is US20120042399A1.

In test [1], “splenocytes from HHD mice vaccinated with p.DOM-PASD1FL (cells without a defined receptor)” had an IFNγ-secreting spot-forming cells ex vivo (ELISPOT) (SFCs/10^6 splenocytes) of 756.
Take “splenocytes from HHD mice vaccinated with p.DOM-PASD1(2) (cells without a defined receptor)”: the IFNγ-secreting spot-forming cells ex vivo (ELISPOT) (SFCs/10^6 cells) in test [2] was determined as 53.
In test [3], “splenocytes from HHD mice vaccinated with p.DOM-PASD1(1) (cells without a defined receptor)” displayed a specific lysis of KMS-12-HHD cells (51Cr release assay) of less than 40%. This substance also showed an IFNγ-secreting spot-forming cells ex vivo (ELISPOT) (SFCs/10^6 cells) in test [4] of 117.
